Experimental data: ChEMBL document CHEMBL1150988, “-lactam-recognizing enzymes exhibit different structural specificity in acyclic amide and ester substrates: a starting point in -lactamase evolution?” (Bioorg Med Chem Lett, 1994)

Experiments:
Conditions in all cases: enterococcus cloacae
[1] = substrate: CC(=O)NCCCC[C@H](NC(C)=O)C(=O)NCC(=O)O[C@H](C)C(=O)O; assay: (§1) Km against P99 beta-lactamase
[2] = substrate: CC(=O)NCCCC[C@H](NC(C)=O)C(=O)NCC(=O)S[C@H](C)C(=O)O; assay: as §1
[3] = substrate: CC(=O)NCCCC[C@H](NC(C)=O)C(=O)N[C@@H](C)C(=O)O[C@H](C)C(=O)O; assay: as §1
[4] = substrate: C[C@@H](OC(=O)CNC(=O)Cc1ccccc1)C(=O)O; assay: as §1
[5] = substrate: C[C@@H](SC(=O)CNC(=O)Cc1ccccc1)C(=O)O; assay: as §1
[6] = substrate: C[C@H](NC(=O)Cc1ccccc1)C(=O)O[C@H](C)C(=O)O; assay: as §1

B1: Beta-lactamase (Enterobacter cloacae), P05364 (protein)
chain: MMRKSLCCALLLGISCSALATPVSEKQLAEVVANTITPLMKAQSVPGMAVAVIYQGKPHYYTFGKADIAANKPVTPQTLFELGSISKTFTGVLGGDAIARGEISLDDAVTRYWPQLTGKQWQGIRMLDLATYTAGGLPLQVPDEVTDNASLLRFYQNWQPQWKPGTTRLYANASIGLFGALAVKPSGMPYEQAMTTRVLKPLKLDHTWINVPKAEEAHYAWGYRDGKAVRVSPGMLDAQAYGVKTNVQDMANWVMANMAPENVADASLKQGIALAQSRYWRIGSMYQGLGWEMLNWPVEANTVVEGSDSKVALAPLPVAEVNPPAPPVKASWVHKTGSTGGFGSYVAFIPEKQIGIVMLANTSYPNPARVEAAYHILEALQ
Km [1]: 36.1 mM
Km [2]: 6.7 mM
Km [3]: 26.9 mM
Km [4]: 8.1 mM
Km [5]: 3.3 mM
Km [6]: 23.4 mM
